Legend:
GDF8 [1] = molecular target: T1, GDF8 (Homo sapiens, UniProt O14793); experiment: A-204 reporter gene assay, pGL3(CAGA)12 luciferase; assay type: cell-based; set-up: host or cells: exogenous factor added to A-204 cells (human rhabdomyosarcoma); details: Example 13
T1 sequence (O14793 267-375): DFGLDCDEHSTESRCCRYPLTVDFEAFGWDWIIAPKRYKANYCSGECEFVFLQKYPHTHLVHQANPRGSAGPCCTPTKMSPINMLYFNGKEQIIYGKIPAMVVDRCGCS
From the text: Day 1: Split A-204 cells into 48-well plate. […]
(§1) In addition, an A-204 Reporter Gene Assay was used to evaluate the effects of ALK4-Fc:ActRIIB-Fc heterodimer and ActRIIB-Fc:ActRIIB-Fc homodimer on signaling by activin A, activin B, GDF11, GDF8, BMP10, and BMP9. Cell line: Human Rhabdomyosarcoma (derived from muscle). Reporter vector: pGL3(CAGA)12 (as described in Dennler et al, 1998, EMBO 17: 3091-3100). The CAGA12 motif is present in TGFβ responsive genes (PAI-1 gene), so this vector is of general use for factors signaling through Smad2 and 3. An exemplary A-204 Reporter Gene Assay is outlined below. • Day 1: Split A-204 cells into 48-well plate. • Day 2: A-204 cells transfected with 10 ug pGL3(CAGA)12 or pGL3(CAGA)12(10 ug)+pRLCMV (1 ug) and Fugene. • Day 3: Add factors (diluted into medium+0.1% BSA). Inhibitors need to be pre-incubated with Factors for about one hr before adding to cells. About six hrs later, cells are rinsed with PBS and then lysed.
(§2) Following the above steps, a Luciferase assay was performed.

activin A [2] = molecular target: T2, activin A (Homo sapiens, UniProt P08476); experiment: A-204 reporter gene assay, pGL3(CAGA)12 luciferase; assay type: cell-based; details: Example 13
T2 sequence (P08476 311-426): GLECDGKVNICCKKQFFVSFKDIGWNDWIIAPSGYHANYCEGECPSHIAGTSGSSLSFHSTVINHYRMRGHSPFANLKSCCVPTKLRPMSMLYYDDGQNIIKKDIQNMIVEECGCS
From the text: An A-204 reporter gene assay was used to evaluate the effects of ActRIIB-Fc proteins and GDF traps on signaling by GDF-11 and activin A. Cell line: human rhabdomyosarcoma (derived from muscle). Reporter vector: pGL3(CAGA)12 (described in Dennler et al, 1998, EMBO 17: 3091-3100). The CAGA12 motif is present in TGF-beta responsive genes (e.g., PAI-1 gene), so this vector is of general use for factors signaling through SMAD2 and 3.
Day 1: Split A-204 cells into 48-well plate.
Day 2: A-204 cells transfected with 10 ug pGL3(CAGA)12 or pGL3(CAGA)12(10 ug)+pRLCMV (1 μg) and Fugene.
Day 3: Add factors (diluted into medium+0.1% BSA). Inhibitors need to be preincubated with factors for 1 hr before adding to cells. Six hrs later, cells were rinsed with PBS and lysed.
This is followed by a luciferase assay.
as §1, §2

GDF3 = molecular target: T3, GDF3 (Homo sapiens, UniProt Q9NR23); experiment: Biacore-based binding assay, receptor captured with anti-Fc antibody
T3 sequence (Q9NR23 251-364): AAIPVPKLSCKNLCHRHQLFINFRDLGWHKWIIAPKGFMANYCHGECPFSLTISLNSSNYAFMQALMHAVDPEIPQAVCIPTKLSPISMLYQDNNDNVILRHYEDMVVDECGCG
Procedure: (§3) A Biacore™-based binding assay was used to compare ligand binding selectivity of the ALK4-Fc:ActRIIB-Fc heterodimeric complex described above with that of ActRIIB-Fc and ALK4-Fc homodimer complexes. The ALK4-Fc:ActRIIB-Fc heterodimer, ActRIIB-Fc homodimer, and ALK4-Fc homodimer were independently captured onto the system using an anti-Fc antibody. Ligands were injected and allowed to flow over the captured receptor protein. Results are summarized in the table below, in which ligand off-rates (kd) most indicative of effective ligand traps are denoted in bold font.

BMP6 = molecular target: T4, BMP6 (Homo sapiens, UniProt P22004); experiment: as above
T4 sequence (P22004 375-513): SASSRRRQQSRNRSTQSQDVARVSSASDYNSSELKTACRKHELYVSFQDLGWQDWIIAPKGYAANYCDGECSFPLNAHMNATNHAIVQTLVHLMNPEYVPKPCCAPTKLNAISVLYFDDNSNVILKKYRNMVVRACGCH
Procedure: as §3

BMP10 = molecular target: T5, BMP10 (Homo sapiens, UniProt O95393); experiment: as above
T5 sequence (O95393 317-424): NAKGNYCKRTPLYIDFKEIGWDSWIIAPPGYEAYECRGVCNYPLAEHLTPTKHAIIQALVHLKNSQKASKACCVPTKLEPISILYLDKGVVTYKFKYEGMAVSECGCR
Procedure: as §3

activin A [3] = molecular target: T2, activin A; experiment: as above
Procedure: as §3

GDF8 [4] = molecular target: T1, GDF8; experiment: as above
Procedure: as §3

GDF11 = molecular target: T6, GDF11 (Homo sapiens, UniProt O95390); experiment: as above
T6 sequence (O95390 299-407): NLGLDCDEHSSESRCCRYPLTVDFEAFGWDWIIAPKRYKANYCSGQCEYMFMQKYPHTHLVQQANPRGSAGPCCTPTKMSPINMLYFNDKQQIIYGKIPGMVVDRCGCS
Procedure: as §3

BMP9 = molecular target: T7, BMP9 (Homo sapiens, UniProt Q9UK05); experiment: as above
T7 sequence (Q9UK05 320-429): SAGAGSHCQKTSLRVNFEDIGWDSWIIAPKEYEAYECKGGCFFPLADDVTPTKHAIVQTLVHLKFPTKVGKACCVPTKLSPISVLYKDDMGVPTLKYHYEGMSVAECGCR
Procedure: as §3

activin B = molecular target: T8, activin B (Homo sapiens, UniProt P09529); experiment: as above
T8 sequence (P09529 293-407): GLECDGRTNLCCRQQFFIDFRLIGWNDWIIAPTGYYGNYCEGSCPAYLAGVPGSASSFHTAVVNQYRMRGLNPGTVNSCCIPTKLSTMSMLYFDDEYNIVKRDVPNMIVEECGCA
Procedure: as §3

B1: ALK4-Fc:ActRIIB-Fc heterodimer: heteromeric complex of extracellular domains of human ActRIIB and human ALK4, each separately fused to an Fc domain with a linker (protein)
chain 1: SGPRGVQALLCACTSCLQANYTCETDGACMVSIFNLDGMEHHVRTCIPKVELVPAGKPFYCLSSEDLRNTHCCYTDYCNRIDLRVPSGHLKEPEHPSMWGPVE
chain 2: GRGEAETRECIYYNANWELERTNQSGLERCEGEQDKRLHCYASWRNSSGTIELVKKGCWLDDFNCYDRQECVATEENPQVYFCCCEGNFCNERFTHLPEAGGPEVTYEPPPTAPT
modifications: left off: a dimerising Fc or GST; small tags and cut ends
notes: heteromeric complex of extracellular domains of human ActRIIB and human ALK4, each separately fused to an Fc domain with a linker
Question: For B1, which “inhibition of GDF8 signaling” value (GDF8 [1]) is on record?
Answer: potent inhibitors

Question: And the “inhibition of activin A signaling” value (activin A [2])?
Answer: potent inhibitors

Question: And the Kd (GDF3)?
Answer: 4900 pM

Question: And the “ka, GDF3” value (GDF3)?
Answer: 3.4e+06 M⁻¹ s⁻¹

Question: What about the “kd, GDF3” value (GDF3) of the same molecule?
Answer: 0.017 s⁻¹

Question: What about the Kd (BMP6) of the same molecule?
Answer: 2700 pM

Question: And the “ka, BMP6” value (BMP6)?
Answer: 2e+06 M⁻¹ s⁻¹

Question: What about the “kd, BMP6” value (BMP6) of the same molecule?
Answer: 0.0055 s⁻¹

Question: What about the Kd (BMP10) of the same molecule?
Answer: 74 pM

Question: What about the “ka, BMP10” value (BMP10) of the same molecule?
Answer: 5.6e+07 M⁻¹ s⁻¹

Question: What about the “kd, BMP10” value (BMP10) of the same molecule?
Answer: 0.0041 s⁻¹

Question: And the “ka, Activin A” value (activin A [3])?
Answer: 1.3e+07 M⁻¹ s⁻¹

Question: What about the “kd, Activin A” value (activin A [3]) of the same molecule?
Answer: 0.00015 s⁻¹

Question: And the “ka, GDF8” value (GDF8 [4])?
Answer: 390000 M⁻¹ s⁻¹

Question: What about the “kd, GDF8” value (GDF8 [4]) of the same molecule?
Answer: 0.00021 s⁻¹

Question: What about the Kd (GDF8 [4]; † = very low signal) of the same molecule?
Answer: 550 pM

Question: And the “ka, GDF11” value (GDF11)?
Answer: 3.8e+07 M⁻¹ s⁻¹

Question: And the “kd, GDF11” value (GDF11)?
Answer: 0.00011 s⁻¹

Question: And the Kd (GDF11; † = very low signal)?
Answer: 3 pM

Question: And the Kd (BMP9)?
Answer: 3400 pM

Question: What about the “ka, BMP9” value (BMP9) of the same molecule?
Answer: Transient*

Question: And the “kd, BMP9” value (BMP9)?
Answer: Transient*

Question: What about the Kd (activin B) of the same molecule?
Answer: 6 pM

Question: And the “ka, Activin B” value (activin B)?
Answer: 7.1e+06 M⁻¹ s⁻¹

Question: And the “kd, Activin B” value (activin B)?
Answer: 4e-05 s⁻¹

— patent US10973880B2, “Compositions and methods for treating pulmonary hypertension” (Acceleron Pharma Inc., priority 2016, dated 2021)
